# B1: GLP-1 receptors of the pancreatic beta-cells (MIP-GFP mice) (receptor)
# chain: GPRPQGTTVSLSETVQKWREYRRQCQRFLTEAPLLATGLFCNRTFDDYACWPDGPPGSFVNVSCPWYLPWASSVLQGHVYRFCTAEGLWLHKDNSSLPWRDLSECEESKRGERNFPEEQLLSLYIIYTVGYALSFSALVIASAILVGFRHLHCTRNYIHLNLFASFILRALSVFIKDAALKWMYSTAAQQHQWDGLLSYQDSLGCRLVFLLMQYCVAANYYWLLVEGVYLYTLLAFSVFSEQRIFKLYLSIGWGVPLLFVIPWGIVKYLYEDEGCWTRNSNMNYWLIIRLPILFAIGVNFLIFIRVICIVVSKLKANLMCKTDIKCRLAKSTLTLIPLLGTHEVIFAFVMDEHARGTLRFIKLFTELSFTSFQGLMVAILYCFVNNEVQMEFRKCWERWRLEHLNIQRDCSMKPLKCPTSSVSSGATVGSSVYAATCQSSYS
# notes: whole, on cells; Endogenous receptor in mouse pancreas; also called glucagon-like peptide-1 receptor
# Biological target: molecular probe of the formula (11) (SEQ ID NO. 11), exendin-4(1-39)-Lys40 with the Lys40 side chain labeled …
# Experiment: ex vivo autoradiography of pancreas sections of MIP-GFP mice after i.v. injection; radioactivity co-localised with the GFP signal of beta-cells
binder,measurement,value
B1,binding result,binds
